In paper PMC10132759:

Molecular target: GAS7b-Avitag, biotinylated (mouse) (UniProt Q60780)
Assay: BLI; BLItz; 0.1 μM biotinylated Avi-tagged GAS7b, Nck or WISH captured on streptavidin (SAX) biosensors; 0.25 μM WASP or its mutants as analyte; 10 mM tris-HCl pH 7.5, 150 mM NaCl, 1 mM EDTA; local fit to a 1:1 model, Kd = Koff/Kon; n = 3

N-WASP without a tag, sequence (Q95107 whole entry): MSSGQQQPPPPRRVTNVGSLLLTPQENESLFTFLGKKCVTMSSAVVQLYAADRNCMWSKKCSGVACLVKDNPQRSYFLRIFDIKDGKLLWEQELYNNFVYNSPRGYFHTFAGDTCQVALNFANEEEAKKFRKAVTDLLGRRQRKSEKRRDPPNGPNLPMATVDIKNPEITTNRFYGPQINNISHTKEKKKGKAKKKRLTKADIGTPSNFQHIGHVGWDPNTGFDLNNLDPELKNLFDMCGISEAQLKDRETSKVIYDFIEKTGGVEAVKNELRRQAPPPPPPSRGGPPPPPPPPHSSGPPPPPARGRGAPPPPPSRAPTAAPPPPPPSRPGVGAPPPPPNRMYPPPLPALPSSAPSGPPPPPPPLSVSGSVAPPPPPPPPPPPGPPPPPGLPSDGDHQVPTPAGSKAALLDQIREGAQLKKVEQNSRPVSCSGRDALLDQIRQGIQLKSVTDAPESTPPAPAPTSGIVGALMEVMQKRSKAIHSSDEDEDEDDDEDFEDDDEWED

Row | Substance | Kd [nM]
1 | N-WASP without a tag (from UniProt Q95107 1-505) (natural protein) | 4.23
2 | WASP (FLAG tag) (from UniProt P42768 1-502) (natural protein) | 4.11
3 | WASP P373S (FLAG tag) (from UniProt P42768 1-502) (natural protein) | 15
4 | WASP S339Y (FLAG tag) (from UniProt P42768 1-502) (natural protein) | 7.13
5 | WASP P359T (FLAG tag) (from UniProt P42768 1-502) (natural protein) | 6.89
